Assay results reported in paper PMC3575409, “Identification of a Novel Protein-Protein Interaction Motif Mediating Interaction of GPCR-Associated Sorting Proteins with G Protein-Coupled Receptors” (PLoS ONE, 2013).

Tested on: GST-fused M1 C-tail
Experiment: GST-pull down, M1 C-tail
Type: binding
Details: percent of full-length GASP-1 interaction; three independent experiments
Method in brief: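 Radiolabelled GASPs ([35S]-Met, coupled transcription/translation) were pulled down by bead-immobilized GST-receptor C-tails, 1 h, 4°C, in 20 mM Tris-HCl pH 7.4, 150 mM NaCl, 1% Triton X-100, 10% glycerol. After five washes, retained GASP was imaged by phosphorimager; values are means of ≥3 experiments.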

B1: central domain of GASP-1: central portion of GASP-1 (AA 380 to 1073) that contains 19 GASP motif (protein)
chain: MTKEEAKTKARARAKQEARSEEEALIGTWFWATDESSMADEASIESSLQVEDESIIGSWFWTEEEASMGTGASSKSRPRTDGERIGDSLFGAREKTSMKTGAEATSESILAADDEQVIIGSWFWAGEEVNQEAEEETIFGSWFWVIDAASVESGVGVSCESRTRSEEEEVIGPWFWSGEQVDIEAGIGEEARPGAEEETIFGSWFWAENQTYMDCRAETSCDTMQGAEEEEPIIGSWFWTRVEACVEGDVNSKSSLEDKEEAMIPCFGAKEEVSMKHGTGVRCRFMAGAEETNNKSCFWAEKEPCMYPAGGGSWKSRPEEEEDIVNSWFWSRKYTKPEAIIGSWLWATEESNIDGTGEKAKLLTEEETIINSWFWKEDEAISEATDREESRPEAEEGDIIGSWFWAGEEDRLEPAAETREEDRLAAEKEGIVGSWFGAREETIRREAGSCSKSSPKAEEEEVIIGSWFWEEEASPEAVAGVGFESKPGTEEEEITVGSWFWPEEEASIQAGSQAVEEMESETEEETIFGSWFWDGKEVSEEAGPCCVSKPEDDEEMIVESWFWSRDKAIKETGTVATCESKPENEEGAIVGSWFEAEDEVDNRTDNGSNCGSRTLADEDEAIVGSWFWAGDEAHFESNPSPVFRAICRSTCSVEQEPDPSRRPQSWEEVTVQFKPGPWGRVGFPSISPFRFPKE
modifications: left off: GST, N-terminal, kept
notes: central portion of GASP-1 (AA 380 to 1073) that contains 19 GASP motif
  interaction with M1 C-tail relative to full-length GASP-1: around 70%
